Blank lines part the entries; values can stand above or below the molecule they belong to.
Key:
[1] = molecular target: T1, Aldo-keto reductase family 1 member A1 (Homo sapiens) (UniProt P14550); assay: Activity of human AKR1A1 expressed in Escherichia coli BL21 assessed per mg protein in presence of 0.2 mM NADPH
T1 sequence (whole entry): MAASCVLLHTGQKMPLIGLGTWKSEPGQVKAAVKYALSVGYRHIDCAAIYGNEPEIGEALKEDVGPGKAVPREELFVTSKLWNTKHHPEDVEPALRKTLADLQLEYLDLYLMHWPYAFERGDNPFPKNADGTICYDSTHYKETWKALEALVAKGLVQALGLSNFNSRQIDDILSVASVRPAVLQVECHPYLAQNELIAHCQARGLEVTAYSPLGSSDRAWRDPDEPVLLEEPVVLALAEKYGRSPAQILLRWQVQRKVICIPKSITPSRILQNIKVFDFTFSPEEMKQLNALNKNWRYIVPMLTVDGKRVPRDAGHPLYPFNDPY

[2] = substrate: COc1cccc2c1C(=O)c1c(O)c3c(c(O)c1C2=O)C[C@@](O)(C(=O)CO)C[C@@H]3O[C@H]1C[C@H](N)[C@H](O)[C@H](C)O1; assay: Activity of GST-tagged aldo-keto reductase 1A1
[3] = substrate: COc1cccc2c1C(=O)c1c(O)c3c(c(O)c1C2=O)C[C@@](O)(C(C)=O)C[C@@H]3O[C@H]1C[C@H](N)[C@H](O)[C@H](C)O1; assay: (§1) Activity of human recombinant His6-tagged carbonyl reductase 1 expressed in Escherichia coli BL21(DE3) using menadione as substrate by Michaelis-Menten plot analysis
[4] = substrate: COc1cccc2c1C(=O)c1c(O)c3c(c(O)c1C2=O)C[C@@](O)(C(=O)CO)C[C@@H]3O[C@H]1C[C@H](N)[C@H](O)[C@H](C)O1; assay: as §1
[5] = substrate: COc1cccc2c1C(=O)c1c(O)c3c(c(O)c1C2=O)C[C@@](O)(C(=O)CO)C[C@@H]3O[C@H]1C[C@H](N)[C@H](O)[C@H](C)O1; assay: Activity of His-tagged carbonyl reductase 1
[6] = substrate: COc1cccc2c1C(=O)c1c(O)c3c(c(O)c1C2=O)C[C@@](O)(C(C)=O)C[C@@H]3O[C@H]1C[C@H](N)[C@H](O)[C@H](C)O1; assay: (§2) Activity of human carbonyl reductase 1
[7] = substrate: COc1cccc2c1C(=O)c1c(O)c3c(c(O)c1C2=O)C[C@@](O)(C(=O)CO)C[C@@H]3O[C@H]1C[C@H](N)[C@H](O)[C@H](C)O1; assay: as §2

Activity [1]: 120 nmol/min
Molecule: COc1cccc2c1C(=O)c1c(O)c3c(c(O)c1C2=O)C[C@@](O)(C(C)=O)C[C@@H]3O[C@H]1C[C@H](N)[C@H](O)[C@H](C)O1

Activity [1]: 11 nmol/min
Molecule: COc1cccc2c1C(=O)c1c(O)c3c(c(O)c1C2=O)C[C@@](O)(C(=O)CO)C[C@@H]3O[C@H]1C[C@H](N)[C@H](O)[C@H](C)O1

B1: Aldo-keto reductase family 1 member A1 (Homo sapiens), P14550 (protein)
chain: MAASCVLLHTGQKMPLIGLGTWKSEPGQVKAAVKYALSVGYRHIDCAAIYGNEPEIGEALKEDVGPGKAVPREELFVTSKLWNTKHHPEDVEPALRKTLADLQLEYLDLYLMHWPYAFERGDNPFPKNADGTICYDSTHYKETWKALEALVAKGLVQALGLSNFNSRQIDDILSVASVRPAVLQVECHPYLAQNELIAHCQARGLEVTAYSPLGSSDRAWRDPDEPVLLEEPVVLALAEKYGRSPAQILLRWQVQRKVICIPKSITPSRILQNIKVFDFTFSPEEMKQLNALNKNWRYIVPMLTVDGKRVPRDAGHPLYPFNDPY
Km [2]: 247 µM
kcat [2]: 0.000667 s⁻¹

B2: Carbonyl reductase [NADPH] 1 (Homo sapiens), P16152 (protein)
chain: MSSGIHVALVTGGNKGIGLAIVRDLCRLFSGDVVLTARDVTRGQAAVQQLQAEGLSPRFHQLDIDDLQSIRALRDFLRKEYGGLDVLVNNAGIAFKVADPTPFHIQAEVTMKTNFFGTRDVCTELLPLIKPQGRVVNVSSIMSVRALKSCSPELQQKFRSETITEEELVGLMNKFVEDTKKGVHQKEGWPSSAYGVTKIGVTVLSRIHARKLSEQRKGDKILLNACCPGWVRTDMAGPKATKSPEEGAETPVYLALLPPDAEGPHGQFVSEKRVEQW
Km [3]: 51 µM
kcat [3]: 1.94 s⁻¹
Km [4]: 287 µM
kcat [4]: 0.21 s⁻¹
Km [5]: 167 µM
kcat [5]: 0.0103 s⁻¹
Km [6]: 108 µM
kcat [6]: 1.27 s⁻¹
Km [7]: 90 µM

Reference: ChEMBL document CHEMBL2177050, “Understanding the binding of daunorubicin and doxorubicin to NADPH-dependent cytosolic reductases by computational methods” (Eur J Med Chem, 2012)
